Assay results taken from patent US5580958.

Molecular target: PU.1 (PU pECE) (Mus musculus) (UniProt P17433)
Assay: cell_activity
Settings: 8 copies upstream of TK-CAT in HeLa; 1 copy 3.5-3.6 fold, 4 copies 3.9-4.3 fold

Substance: PU-1 (SV40 enhancer PU box)
- activity: 18.3 fold
